This is an account of results in patent US20170362330A1 (University of California, published 2017).

The assay addresses T1, recombinant Fc fusion protein composed of the Sushi domain 1 and 2 of human CD46 (human, UniProt P15529 35-159).
T1 construct: domain: Sushi domain 1 and 2; Produced in HEK293 cells, purified by protein A; also called CD46-Fc fusion; recombinant CD46-Fc fusion protein; not shown: Fc part
T1 sequence (looked up): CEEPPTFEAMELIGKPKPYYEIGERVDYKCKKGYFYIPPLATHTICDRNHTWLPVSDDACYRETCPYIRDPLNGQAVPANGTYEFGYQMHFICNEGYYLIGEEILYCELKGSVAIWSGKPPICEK
As to the kind of experiment: phage and yeast display selection and FACS screening with recombinant CD46-Fc fusion. From the text: To identify novel anti-human CD46 antibodies, a recombinant Fc fusion protein composed of the Sushi domain 1 and 2 of human CD46 was created. As complement elements bind predominantly to domain 3 and 4, the choice of domain 1 and 2 minimize selection of antibodies that could potently interfere with normal complement function. This CD46-Fc fusion was produced and purified from transfected HEK293 cells by protein A affinity chromatography. For human antibody selection, a 5×10⁹ member phagemid display library was created using cDNAs pooled from peripheral blood mononuclear cells of 426 healthy human donors, and the library was selected the recombinant CD46-Fc fusion protein. Following three rounds of selection, binding phagemid were screened by FACS and sequenced. In parallel, an alternatively strategy was employed that involve first selecting the library on live tumor cells followed by transferring the output from round 1 phagemid selection into a yeast surface display vector, and then FACS-based selection using low concentration ligands to enrich high affinity binders to the recombinant CD46-Fc fusion protein. The resulting antibodies bind with high affinity to both live tumor cells and the recombinant human CD46 protein.

B1: UA8kappa (antibody, V domains shown)
VH: EVQLVESGGGVVQPGRSLRLSCAASGFTFSSFGMHWVRRAPGKGLEWVAVISYDGSNQYYADSVKGRFTISRDNSKNTLYLQMNSLRAEDTAVYYCGSRPGGGYASGSTVAYWGQGTLVTVSS
VL: NIQMTQSPSSLSASVGDRVTITCRAGQPISTYVNWYQHKPGKAPKLLIYGASNLQSGVPSRFSGGGSATDFTLTISSLQPEDFATYYCQQSYSSLLTFGDGTKVEIK
notes: Human scFv from phage/yeast display, converted into full human IgG1; also called UASkappa
Take B1: the binding result is reported as “binds”.

B2: YS8 (antibody, V domains shown)
VH: QVQLQESGGGVVQPGRSLRLSCAASGFTFSSYGMHWVRQAPGKGLEWVAVISYDGSNKYYADSVKGRFTISRDNSKNTLYLQMNSLRAEDTAVYYCAKVMGLAAAGLDAFDIWGQGTTVTVSS
VL: NFMLTQPASLSGSPGQSITISCTGTSSDVGGYNYVSWYQQHPGYAPKLMIYDVSNRPSGVSNRFSGSKSGNTASLTISGLQAEDEADYYCSSYTSSSTPWVFGGGTKLTVL
notes: Human scFv from phage/yeast display, converted into full human IgG1
Turning to B2, the binding result was “binds”.

B3: 2C8 (antibody, V domains shown)
VH: EVQLVESGGGVVQPGRSLRLSCAASGFTFSSYGMHWVRQAPGKGLEWVAVISYDGSNKYYADSVKGRFTISRDNSKNTLYLQMNSLRAEDTAEYYCAKVMGLAAAGLDAFDIWGQGTLVTVSS
VL: QSALTQPASVSGSPGQSITISCTGTSSDVGGYNYVSWYQQHPGKAPKLMIYDVSNRPSGVSNRFSGSKSGNTASLTISGLQAEDEAYYYCSSYTSSSDPWVFGGGTQLTVL
notes: as for B2
Consider B3, for which the binding result was “binds”.

B4: 3G7RY (aka 3G8) (antibody, V domains shown)
VH: EVQLVESGGGLVQPGGSLRLSCAASGFTFSDYYMSWIRQAPGKGLEWVSYISSSGSTIYYADSVKGRFTISRDNSKNTLYLQMNSLRAEDTAVYYCARDYGRIAAAGRRYWGQGTLVTVSS
VL: QSALTQPPSASATPGQRVTISCSGRTSNIGSNHVYWYQQLPGTAPKLLIYRNNQRPSGVPDRFSGSKSGTSASLAISGLRSEDEADYYCATWDDSLSGEVFGGGTKLTVL
notes: Human scFv from phage/yeast display, converted into full human IgG1; elsewhere 3G8 is 3G7RY
Regarding B4, the binding result is “binds”.

B5: 3G7HY (antibody, V domains shown)
VH: EVQLVESGGGLVQPGGSLRLSCAASGFTFSDYYMSWIRQAPGKGLEWVSYISSSGSTIYYADSVKGRFTISRDNSKNTLYLQMNSLRAEDTAVYYCARDYGRIAAAGRHYWGQGTLVTVSS
VL: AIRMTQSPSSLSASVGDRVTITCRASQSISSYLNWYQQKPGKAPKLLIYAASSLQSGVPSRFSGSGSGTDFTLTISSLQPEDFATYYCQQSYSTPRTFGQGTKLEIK
notes: as for B2
As to B5, the binding result is given as “binds”.

B6: 3G7NY (antibody, V domains shown)
VH: EVQLVESGGGLVQPGGSLRLSCAASGFTFSDYYMSWIRQAPGKGLEWVSYISSSGSTIYYADSVKGRFTISRDNSKNTLYLQMNSLRAEDTAVYYCARDYGRIAAAGRNYWGQGTLVTVSS
VL: DIVMTQSPLSLPVTPGEPASISCRSSQSLLHSNGYDYLDWYLQKPGQSPQLLIYLGSNRASGVPDRFSGSGSGTDFTLKISRVETEDVGIYYCMQGLQTPSFGQGTKLEIK
notes: as for B2
Turning to B6, the binding result was “binds”.

B7: YS6 (antibody, V domains shown)
VH: QVQLQESGGGVVRPGGSLRLSCAASGFTFSDYYMSWIRQAPGKGLEWVSYISSSGSTIYYADSVKGRFTISRDNSKNTLYLQMNSLRAEDTAVYYCARDYGRIAAAGRHYWGQGTLVTVSS
VL: SSELTQDPAVSVALGQTVRITCQGDSLRSYYASWYQQKPGQAPVLVIYGKNNRPSGIPDRFSGSSSGNTASLTITGAQAEDEADYYCNSRDSSGTHLEVFGGGTKVTVL
notes: as for B2
On to B7, for which the binding result was “binds”.

B8: YS1 (antibody, V domains shown)
VH: EVQLVESGGGLVQPGGSLRLSCAASGFTFSDYYMSWIRQAPGKGLEWVSYISSSGSTIYYADSVKGRFTISRDNSKNTLYLQMNSLRAEDTAVYYCARDYGRIAAAGRHYWGQGTLVTVSS
VL: SSELTQDPAVSVALGQTVRITCQGDTLSTYYANWYQQKPGQAPVLVIYGKNNRPSGIPDRFSGSSSGNTASLTITGAQAEDEADYYCHSRDISGNYLFASGTKLTVL
notes: as for B2
For the molecule B8, the binding result is “binds”.

B9: 3G7 (antibody, V domains shown)
VH: QVQLQESGGGVVRPGGSLRLSCAASGFTFSDYYMSWIRQAPGKGLEWVSYISSSGSTIYYADSVKGRFTISRDNSKNTLYLQMNSLRAEDTAVYYCARDYGRIAAAGRHYWGQGTLVTVSS
VL: SSELTQDPAVSVALGQTVRITCQGDSLRSYYASWYQQKPGQAPVPVIYGKNNRPSGIPDRFSGSSSGNTASLTITGAQAEDEADYYCNSRDSSSTHRGVFGGGTKLTVL
notes: as for B2
As to B9, the binding result is “binds”.

B10: YS9 (antibody, V domains shown)
VH: QVQLVESGGGLIQPGGSLRLSCAASGFTVSSNYMSWVRQAPGKGLEWVSVIYTDGSTYYADSVKGRFTISRDNSKNTLYLQMNSLRAEDTAIYYCARDRGTSGYDWAWFDLWGQGTLVTVSS
VL: SSELTQDPAVSVALGQTVRITCQGDSLRTYYASWYQQRPGQAPILVLYGKNNRPSGIPDRFSGSSSGNTASLTITGAQAEDEADYYCNSRDSSGNHVVFGGGTKLTVL
notes: as for B2
B10: the binding result is “binds”.

B11: YS11 (antibody, V domains shown)
VH: QVQLVESGGGLVQPGGSLGLSCAASGFTFSNYWMSWVRQAPGKGLEWVANVRQDGGQKYYVDSVKGRFTISRDNAKNSLYLQMNSLRTEDTAVYFCVSQRNSGEHDYWGQGTLVTVSS
VL: SELTQDPAVSVALGQTVRITCQGDSLRSYYASWYQQKPGQAPVLVIYGENSRPSGIPDRFSGSSSGNTASLTITGAQAEDEADYYCNSWDSSGNHVVFGGGTKLTVL
notes: as for B2
As for B11, the binding result is “binds”.

B12: SB1HGNY (antibody, V domains shown)
VH: QVQLQQSGGGVVQPGRSLRLSCAASGFTFSSYAMHWVRQAPGKGLEWVAFIRSDGSKKYYADSVKGRFTISRDNSKNTLYLQMNSLRAEDTAVYYCARHGNYFDSWGQGTLVTVSS
VL: DIQMTQSPSFLSASVGDRVTITCRASQGISSYLAWYQQKPGKAPKLLIYAASTLQSGVPSSFSGSGSGTEFTLTISSLQPEDFATYYCQQLASYPLTFGGGTKVDIK
notes: as for B2
For B12, the binding result is reported as “binds”.

B13: SB2 (antibody, V domains shown)
VH: EVQLVESGGGLVKPGGSLRLSCAASGFTFSDYYMSWIRQAPGKGLEWVSYISSSGSSIYYADSVKGRFTISRDNAKNSLYLQMNSLKAEDTAVYYCARDITDVVGVSFDYWGQGTLVTVSS
VL: DIQLTQSPSSLSASVGDRVTITCRASRSISTYLSWYQQKPGKAPKLLIYDASRLQNGVPSRFSGSGSDTDFTLTISSLQPEDFATYFCQQSYNPPWTFGQGTKLEIK
notes: as for B2
On to B13, for which the binding result is on record as “binds”.

B14: YS4 (antibody, V domains shown)
VH: QVQLQESGGGLVQPGGSLRLSCAASGFTFSNYAMSWVRQAPGKGLEWVSTISGSGSSTFYVDSVKGRFTISRDNSKNTLYLQMNSLRAEDTAVYYCAQGLYSSGWANWFDPRGQGTLVTVSS
VL: KIVLTQSPSSLSASVGDTVTIACRASRDIRNDLAWYQQKPGKAPKLLIYGASSLQSGVPSRFSGSGSGTEFILTISSLQPEDFATYYCHRLNSYPLTFGGGTKVDIK
notes: as for B2
With B14, the binding result is “binds”.

B15: YS5F (antibody, V domains shown)
VH: QVQLVQSGGGVVQPGRSLRLACAASGFTVNNYAMHWVRQAPGKGLEWVAVISYDGNNKYYADSVKGRFTISRDNSKNTLYLQMNSLRAEDTAVYYCAKGGGYFDLWGRGTLVTVSS
VL: QSVLTQPPSVSGAPGQRVTISCTGSSSNIGAGYDVHWYQQLPGTAPKLLIYGNNNRPSGVPDRFSGSKSGTSASLAITGLQAEDEADYYCSSYTSGTWLFGGGTKLTVL
notes: as for B2
On to B15, for which the binding result was “binds”.

B16: YS10 (antibody, V domains shown)
VH: QVQLQESGGGLVQPGGSLRLSCAASGFTFSSYAMSWVRQAPGKGLEWVSAISGSGGSTYYADSVKGRFTISRDNSKNTLYMQMNSLRAEDTAVYYCAKDRYYYGSGKDAFDIWGRGTMVTVSS
VL: QSVLTQPASVSGSPGQSITISCTGTGSDVGSYNYVSWYQQNPGKAPKLMIYEVSNRPSGVSNRFSGSKSGNTASLTISGLQAEDEADYYCSSYTTSSTLVFGGGTKVTVL
notes: as for B2
In the case of B16, the binding result was “binds”.

B17: YS7 (antibody, V domains shown)
VH: QVQLVQSGGGVVQPGRSLRLSCAASGFTFSSYAMHWVRQAPGKGLEWVAVISYDGSNKYYADSVKGRFTISRDTSTNTLYLQMNSLRADDTAVYYCGRESSGSPGVWGQGTTVTVSS
VL: SYVLTQDPAVSVALGQTVRITCQGDSLRSYYASWYQQKPGQAPVLVIYGKNNRPSGIPDRFSGSSSGNTASLTITGAQAEDEADYYCNSRDSSGNQFGGGTKLTVL
notes: as for B2
Regarding B17, the binding result is given as “binds”.

B18: YS3 (antibody, V domains shown)
VH: QVQLQESGGGLVQPGGSLRLSCAASGFTFSSYWMSWVRQAPGKGLEWVADIKQDGSEKYYVDSVKGRFTISGDNAKNSLYLQMNSLRAEDTAVYYCAKDVGSTAINYVRAYTWFDPWGQGTLVTVSS
VL: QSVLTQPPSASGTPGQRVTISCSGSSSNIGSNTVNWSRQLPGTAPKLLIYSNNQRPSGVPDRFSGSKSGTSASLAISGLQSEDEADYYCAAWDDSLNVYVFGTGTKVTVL
notes: as for B2
For B18, the binding result is given as “binds”.

B19: YS12 (antibody, V domains shown)
VH: QVQLVESGGGVVQPGRSLRLSCAASGFTFSTYGMHWVRQAPGKGLEWLSFISYDGDEKYYADSVKGRFTISRDNSKNTLYLQMNSLRAEDTAVYWCAKASGYGMGILDYWGQGTLVTVSS
VL: SSELTQDPAVSVALGQTVRITCQGDSLRSYYVSWFQQKPGQAPVFVMYGQNNRPSGISERFSGSSSGNTASLIITGAQAEDEADYYCHSRDSSGTHLRVFGGGTKLTVL
notes: Human scFv from phage/yeast display, converted into full human IgG1; also called YS12 IgG1
For B19, the binding result was “binds”.
